Assay results: the supplement of paper PMC12042874
± gives the uncertainty stated by the source.

Assay: amyloid nucleation score (Sup35N fusion, yeast selection) (log enrichment); library NNK2; higher = more nucleation; inactive = no reads after selection
Summary of the method: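 For the nucleation score, DiMSum gave the log enrichment of output over input reads, centred on the mode score of non-aggregating sequences. Psi-negative yeast expressing Sup35N fused to peptides of 20 random codons were induced with 100 μM copper sulfate for 24 hours and grown 7 days at 30°C on medium lacking adenine and uracil. Input and output plasmid inserts were Illumina-sequenced, and sequences with under 100 input reads were excluded.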

Row | Substance | amyloid nucleation score
1 | GSPWGSHGRHGLKHTKALKA | 1.1 ± 0.25
2 | GTTVMGGILVLDGQALIGSM | 1.06 ± 0.28
3 | IRFANVPSRNKFH | 0.486 ± 0.36
4 | NIQDLARSLDRDWTYIGIES | 3.65 ± 0.079
5 | VSRII | inactive
6 | CKLIFYTYPDYIYILIVKSS | inactive
7 | ICWRHTGIICKAGSNRSH | inactive
8 | SNGFGCAEVSGYYVSN | -0.691 ± 0.79
9 | ILNYSWALRVIDFTHRKVFS | -0.376 ± 0.2
10 | VCYYMWWFVYKHRSWQSGSW | -0.639 ± 0.74
11 | GIGAQINHSVPLRGGKPRAL | -0.406 ± 1.1
12 | HPFVSDCVMDLKFTVVTGLV | 0.086 ± 0.3
13 | EYLRPSWSH | -0.971 ± 0.56
14 | GINVSYLFIPHVGKICGNYN | 7.151 ± 0.047
15 | NTYLSMEFLLTP | inactive
16 | VLIRSSDNWWAEGSGVLGSC | 0.201 ± 1
17 | WWSKEREYWSLPVGWFMEAV | 0.085 ± 0.45
18 | KCHCRAMS | inactive
19 | YRGSGLMNTSDFVSVLALVN | inactive
20 | DGMSRSVRKNCEAGCRRSFG | 4.58 ± 0.048
21 | DGFVVASISWGSNFLVFFIY | inactive
22 | ALWGF | -0.235 ± 0.38
23 | ATNNPVMNFAGLAKECFAYM | -0.106 ± 0.79
24 | LGWRVGWYASDAFYKPEWFD | -0.53 ± 0.41
25 | MSPWRDRSRFKIYDGPTWRM | 0.728 ± 0.8

Row | Substance | amyloid nucleation score
26 | FGLWQVPSGWNTADRA | 0.743 ± 0.58
27 | SVCGLWWLSHSVQRWSEWYS | 5.99 ± 0.067
28 | SFNVYRASGVKVRQWAFHGG | 0.076 ± 0.61
29 | RAMYECF | 0.604 ± 0.41
30 | ICPFKSWFFYSLPYAFVRFT | inactive
31 | LTCLFPFWRWCIPAAIEFRR | 0.901 ± 0.28
32 | NVGGIASLGPFTY | -0.14 ± 0.27
33 | LVRVGDFG | -0.267 ± 0.54
34 | CSMMEPTMY | 0.269 ± 0.41
35 | VCQRPEMVLNSIETLQPRWS | 0.211 ± 0.21
36 | LAVHYHILRERTALCLGDHQ | -0.127 ± 1.1
37 | LQASIIAMVRGRTNDSFLED | 2.7 ± 0.21
38 | SDFIPGKMCLNCLWWFVPTR | -0.496 ± 0.36
39 | FNVAGRRRISGTNLY | -0.159 ± 1.1
40 | FHSRAEICLIWNHIVQDWRN | 3.58 ± 0.071
41 | RRALIWIAIHECIRTTPHLL | -0.434 ± 0.76
42 | LESHLVMRYS | -0.307 ± 0.48
43 | SCGVDCSVSGC | 0.903 ± 0.57
44 | CPVLG | 1.87 ± 0.32
45 | RLVPISKNRVGMNWSASLSL | 0.012 ± 0.15
46 | MIVNYFWIRCAPLFWQAIPS | 3.63 ± 0.15
47 | WEITLVNGSWVLESRTQRHF | 4.06 ± 0.079
48 | DNVLYHPDGFGMISALTGVV | -0.753 ± 0.45
49 | FRMVSKPMLYNIMRFTSMLV | 0.057 ± 1.1
50 | WILVGFIIGTKWVSRPTTDC | 3.61 ± 0.056

Row | Substance | amyloid nucleation score
51 | VQMYCRSSAQPRVAILAMSG | 1.16 ± 0.12
52 | KNNTADWWIRSNSERYRN | -0.039 ± 0.46
53 | LFVLLSDKTHSYSYAECQPM | 3.65 ± 0.052
54 | TAVWDL | 0.745 ± 0.42
55 | DNYSRCGICWVSLRVLYVRR | inactive
56 | EVFACTSG | 1.56 ± 0.44
57 | ISGTHLCSRFYIRYALCGLK | 4.66 ± 0.079
58 | HNTKSYLWV | inactive
59 | LRFMNPRSALRYTKVSCTGN | -0.587 ± 0.54
60 | FVSSII | -1.29 ± 0.39
61 | DTRLIGECQLGSGVTVLSLG | 0.252 ± 0.27
62 | IDVSKCVLGKDSSLRGTNTR | -0.595 ± 0.28
63 | FCEICPKYYALFEEGQLSGR | 3.62 ± 0.068
64 | DLVHFLRNRWCGIR | -0.73 ± 0.55
65 | YTFCKHDVYAISLRFVLAPY | 7.304 ± 0.035
66 | DITYQHDGVIE | -0.789 ± 0.32
67 | TFNRFFRCSVFAFRA | 4.53 ± 0.062
68 | LLFMVIFDRECRVIIHCGTM | -0.21 ± 0.34
69 | DRWEPKLI | -0.516 ± 0.23
70 | RRFVCRCFRYTHECVLGCFG | 1.52 ± 0.33
71 | LRAGLMHGWMRFRCTRVACV | -0.914 ± 0.64
72 | VRRMRG | 1.18 ± 0.42
73 | GMDSFPFCMCRDCPYWGYDM | -0.745 ± 0.32
74 | FDGLIFSITRTLVY | -1.42 ± 1.1
75 | NFYILLATGSFYAVLGCRQY | 2.36 ± 0.12

Row | Substance | amyloid nucleation score
76 | KCRLSIF | inactive
77 | YFSWTWVVFNAFNEVRFWTW | -1.59 ± 0.61
78 | NSDCEVPFTWFVMLIGAPGG | -0.393 ± 0.76
79 | LLLLWYRNQPHITDAFRQEL | 0.733 ± 0.44
80 | GIYGSGIAFRRSGGWWEVCS | inactive
81 | QTYIFFICLVVGMYIVCGKH | -0.17 ± 0.45
82 | GVIRILWDECRTSDYFGCGT | 0.047 ± 0.26
83 | SVESIYLVVDVMMLGELCCA | 4.849 ± 0.034
84 | YAFRSYMKFIYFCSDFFSDR | -2.32 ± 0.75
85 | SLPDRKIKWESGGP | 0.646 ± 0.33
86 | GNRDSLNMFVCDRILRCPVQ | -0.273 ± 0.33
87 | HRYSRLRRVHYSYRSKGLNH | inactive
88 | MRWSYFDH | 0.921 ± 0.47
89 | LHMECLKDKSCNNSSADVRG | 0.374 ± 0.62
90 | NTLVMRWCRGCQWKEQLASN | 1.1 ± 0.41
91 | IYLTSIYRQFSMLLLGSRTE | inactive
92 | FGTKHFVICSL | -0.989 ± 0.76
93 | VSLNCKRRALMTWYVKGLFG | -0.073 ± 0.22
94 | IKSIT | -0.388 ± 1
95 | SYANCNLNVNTLREEVHERW | 0.268 ± 0.62
96 | MIKHGYQWPCSLCT | 0.219 ± 0.46
97 | NGIQGL | inactive
98 | GIQVNYRWLGFGVGKRKARL | 5.547 ± 0.043
99 | DFSTLAPLKLVMHI | -0.267 ± 0.54
100 | QFASISICYKSSIPNDCNDV | 1.12 ± 0.2

Row | Substance | amyloid nucleation score
101 | TWIGYHFGI | inactive
102 | SVRMVFIGNLSRGNWSALWS | 7.627 ± 0.037
103 | TFRYVWLSHPV | 3.63 ± 0.11
104 | LGTAKNFIPSGNVRLLALQF | inactive
105 | VIMVTSPQFKKPKLYMDKRD | -1.03 ± 0.54
106 | VKYRDIMSRGSVVRQNDKVS | inactive
107 | IKHKLWRAYYCSESTLSVLS | -1.03 ± 0.28
108 | LYRYSSG | inactive
109 | CSKLFSRGPGLAFFQFFI | inactive
110 | MLMRNFSNSNLLAENFMQMR | 0.138 ± 1.1
111 | STYPILR | 2.02 ± 0.18
112 | ALNDAGYT | -0.656 ± 0.27
113 | VYYLVSLGLT | 1.91 ± 0.14
114 | CTTLLALHMWISCVIGWSR | 0.172 ± 0.39
115 | DIRMLERTNLIPYNKQVMGM | 0.163 ± 0.29
116 | SVLCEGTPEETTFLSDRLSG | 1.09 ± 0.27
117 | DGVNAFNR | 0.203 ± 0.2
118 | LMLVVQALNHAYLLQVMSCT | 0.805 ± 0.67
119 | TPSFLLMICRNMVLGCG | 0.472 ± 0.8
120 | ALMSCLLCVHWRLDSATGGR | 5.64 ± 0.09
121 | SVDHLDSVFDYFHVRYKFIS | -1.09 ± 1.1
122 | IMNKVAWWIFMRMLSRGFVT | -1.1 ± 0.54
123 | GGVIVQYLPFSNYLRKQGSL | -0.304 ± 0.39
124 | DTLFNCFSCIVKLMSYIKSL | inactive
125 | RADSIFDTI | -0.721 ± 0.61

Row | Substance | amyloid nucleation score
126 | LVTARQLARI | 0.121 ± 0.24
127 | WFYNVATYTHVAANTRVMKC | 0.231 ± 0.44
128 | LAVIGVSRGMGL | 0.716 ± 0.25
129 | LTEVVMAILFSDDSRYIFCG | 1.41 ± 0.16
130 | FIRHSTSALGP | 0.889 ± 0.43
131 | TRFCCVATHFDYNLIIFYYP | 0.554 ± 0.23
132 | LTRRVGIFFHFG | 4.74 ± 0.05
133 | FFWFQTSLDTPWKEVILVYI | -0.719 ± 0.79
134 | DSGEPWILMFLDGYLSAMRL | -0.513 ± 0.61
135 | FGFVTKYFMGV | 1.96 ± 0.23
136 | VPSQASGTRACKHNWTVWLE | 1.33 ± 0.25
137 | SKSVWMRLVS | -0.58 ± 0.24
138 | FLKIYPIPNCYERCCVHLPP | 0.06 ± 0.61
139 | VLKVRHVFEGGTEVILQSNR | 2.22 ± 0.2
140 | QMYATSFNIDCVLFLSLFEM | 6.27 ± 0.07
141 | DFCSLATYGKRGFCDMYYYV | 0.343 ± 0.35
142 | FGMILPFGDIFTLASDFRVR | -0.833 ± 1.1
143 | FRDIVWF | -0.469 ± 0.55
144 | FIPYNSW | 0.689 ± 0.16
145 | AVAVACLDH | 0.713 ± 0.58
146 | SAMSCPTKSAELRKCSYHPS | 0.246 ± 0.27
147 | MEVADC | 0.591 ± 0.35
148 | DLIGPYRVLRFCRWV | 2.8 ± 0.099
149 | SRVIVTDFVNSNATA | 0.218 ± 0.51
150 | FWYCTHTTSYDGTLNSEWVT | 0.307 ± 0.26

Row | Substance | amyloid nucleation score
151 | VSNPSSQMNC | 0.042 ± 0.16
152 | LKSEALDGAADCRGCYSGPL | 0.374 ± 0.64
153 | TVWVIVERYMGFLYFLYNTS | inactive
154 | GVVNSRYALFNCRLEFKDVL | 9.742 ± 0.071
155 | PSDTYNNDG | 0.751 ± 0.58
156 | YSRGWVHVI | 0.384 ± 0.56
157 | PGSVWFSLTSMHE | 0.623 ± 0.66
158 | YFWFYTV | -0.691 ± 0.34
159 | QCLYWV | inactive
160 | GVCPTVVCPHYIDVRML | 0.16 ± 0.55
161 | KAKLMKRSFWMWSCLLCFR | 0.912 ± 0.74
162 | VYYGVYLMSCFVAGGYFYCF | 3.75 ± 0.061
163 | DRGYKSYGG | 0.775 ± 0.74
164 | FGDVQKPVRMLFVFSFWLLG | -0.392 ± 0.79
165 | GKFLCDV | 0.775 ± 0.31
166 | LLNYTRGACCDRTRVQFSTT | -0.079 ± 0.76
167 | QTYMPTFCYITFLECWSDKG | 7.685 ± 0.035
168 | IIHAFHMSGPLLRAQVS | -0.308 ± 0.38
169 | FTWVYMVGFKWWVSVCLLDS | -0.551 ± 0.28
170 | CMVNPVPWDCLVRKFMFVGA | -0.421 ± 0.35
171 | SLSYDWFASHLWTYDGW | -1.03 ± 0.34
172 | VRLPLIVYLKSAYTSPPWGS | -0.702 ± 1.1
